Results taken from US20230310629A1 (Merck KGaA, published 2023).
Where no end group is shown, it is not given here.

T1: biotinylated synthetic VNTR peptide of MUC1 (APDTRPAPGSTAPPAC-biotin) (human)
T1 construct: also called human MUC1-VNTR peptide
T1 peptide: APDTRPAPGSTAPPAC-biotin

T2: fragment of human MUC1 immunodominant core peptide (APDTRPAPGSTAPPA) (human)
T2 construct: also called MUC1 peptide; human MUC1 truncated peptide
T2 peptide: APDTRPAPGSTAPPA


Assays:
[1] = molecular target: T1, biotinylated synthetic VNTR peptide of …; assay: Biacore, human MUC1-VNTR; ka1
[2] = molecular target: T1, biotinylated synthetic VNTR peptide of …; assay: Biacore, human MUC1-VNTR; kd1
[3] = molecular target: T1, biotinylated synthetic VNTR peptide of …; assay: Biacore, human MUC1-VNTR peptide
[4] = molecular target: T2, fragment of human MUC1 immunodominant …; assay: co-crystallisation, X-ray structure

binding result [4]	Binder	kon [1]	koff [2]	Kd [3]
–	1993-H02 with an HT186-D11 light chain (anti-MUC1 antibody H02) (antibody, V domains shown, One molecule is used here for both experiments) VH: QMQLVQSEAELKKPGASVKVSCKASGYSFTSHFMHWVRQAPGQGLEWMGWIDPVTGGTKYAQNFQGWVTMTRDTSIRTAYLELSRLRSDDTAMYYCAREARADRGQFDKWGQGTLVTVAS VL: QSVLTQPPSVSVAPGKTARITCGGNNIGSKSVHWYQQKPGQAPALVIYYGSNRPSGIPERFSGSNSGNTATLTISRVEAGDEADYYCQVWDSSSDWVFGGGTKLTVL	126000 M⁻¹ s⁻¹	0.0017 s⁻¹	0.901 nM
binds	H02-scFv, the MUC1-binding arm of Molecule 1 (scFv) scFv: QMQLVQSEAELKKPGASVKVSCKASGYSFTSHFMHWVRQAPGQGLEWMGWIDPVTGGTKYAQNFQGWVTMTRDTSIRTAYLELSRLRSDDTAMYYCAREARADRGQFDKWGQGTLVTVASGGGGSGGGGSGGGGSQSVLTQPPSVSVAPGKTARITCGGNNIGSKSVHWYQQKPGQAPALVIYYGSNRPSGIPERFSGSNSGNTATLTISRVEAGDEADYYCQVWDSSSDWVFGGGTKLTVL	–	–	–
